In patent publication US20060099150A1 (published 2006):

B1: single chain antibody sFv5A (scFv)
scFv: QVQLQQSGGGVVQPGRSLRLSCAASGFTFSSYAMHWVRQAPGKGLEWVSAISGSGGSTYYADSVKGRFTISRDNAKNSLYLQMNSLRAEDTAVYYCARDTRGYFDLWGRGTLVTVSSGGGGSGGGGSGGGGSSELTQDPAMSVALGQTVRITCQGDSLRKYHASWYQQRPRQAPRLVVYGKNERPSGIPERFSGSTSGDTASLTISGLQAEDEADYYCHSRDSNADLVVFGGGTKVTVLGAAAEQKLISEEDLNGAAHHHHHH
notes: also called sFv (positive control)
B2: sFv5AF-Cys (scFv)
scFv: DYKAKQVQLVQSGGGVVQPGRSLRLSCAASGFTFSSYAMHWVRQAPGKGLEWVSAISGSGGSTYYADSVKGRFTISRDNAKNSLYLQMNSLRAEDTAVYYCARDTRGYFDLWGRGTLVTVSSGGGGSGGGGSGGGGSSELTQDPAMSVALGQTVRITCQGDSLRKYHASWYQQRPRQAPRLVVYGKNERPSGIPERFSGSTSGDTASLTISGLQAEDEADYYCHSRDSNADLVVFGGGTKVTVLGGGGGSCAAAEQKLISEEDLNGAAHHHHHH
notes: also called s5AF-Cys; sFv5AF-Cys starting material

Target: T1, pIgR Domain 6 GST (D6-GST) fusion protein, species not stated (Schistosoma japonica, UniProt P08515 1-218 = GST)
T1 construct: also called D6-GST constructs
T1 sequence (P08515 whole entry, the tested form may be a part): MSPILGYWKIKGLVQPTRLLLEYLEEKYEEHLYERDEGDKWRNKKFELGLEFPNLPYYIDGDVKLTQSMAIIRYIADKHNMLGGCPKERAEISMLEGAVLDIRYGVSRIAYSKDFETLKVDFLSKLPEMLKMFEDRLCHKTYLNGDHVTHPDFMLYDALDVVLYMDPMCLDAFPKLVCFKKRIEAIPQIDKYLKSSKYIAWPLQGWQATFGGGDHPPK
Experiment: SPR BIAcore, 1:1 Langmuir global fit 62.5-1000 nM; ligand not named

| Binder | Ka [M⁻¹] | Kd [nM] | koff [s⁻¹] | kon [M⁻¹ s⁻¹] |
| --- | --- | --- | --- | --- |
| B1 | 6.31e+06 | 158 | 0.00464 | 29300 |
| B2 | 9.84e+06 | 102 | 0.00464 | 37600 |
